B5: His-tagged Erh1 (residues 1-104) (natural protein, S. pombe, UniProt G2TRN4 1-104, looked up)
chain: MSPPPAESHIILLIQQGSDPKTRIWSDHCSLRSAIEYIVGVYQTNQAVSEKESIDVSRFFNFFDEIYDCVPLVYDRHFRAYIPHEKQWLLHHAQEYLTAARQIP
notes: Erh1 (Enhancer of rudimentary homolog 1), S. pombe, residues 1-104; Cloned into p28a, a modified pET28a without a thrombin cleavage site; Homodimer by SEC and in the crystal; also called Enhancer of rudimentary homolog 1; source: E. coli BL21 (Gold), purified (Ni-chelating resin, SEC)

Experiments:
[1] = target: B5; assay: ITC; MicroCal iTC200, 293 K, 20 mM Tris-HCl pH 7.5, 150 mM NaCl; SUMO-tagged Mmi1 peptides titrated into Erh1 in the cell; single-site binding model; conditions: both partners purified
[2] = target: B5; assay: SEC; analytical size-exclusion chromatography, calibrated Superdex75 10/300 GL column; Erh1 alone and Erh1 with Mmi1^95-122 after removal of the SUMO tag by ULP1; conditions: both partners purified
Erh1 = assay: GST pull-down of Erh1 with GST-tagged Mmi1 fragments, Coomassie; type: binding, S. pombe; conditions: GST-Mmi1 fusion incubated with Erh1, glutathione-agarose, SDS-PAGE
Excerpt: Fig. 1 Mmi1 interacts with Erh1 in a 2:2 stoichiometry. a Shown is a schematic representation of the domain architecture of Mmi1. The disorder score from DISOPRED3 Server[62] and the conservation score are shown below. The conservation score is generated by a Protein Residue Conservation Prediction Server[63] from the sequence alignment of Mmi1 orthologues from S. pombe, S. cryophilus, S. octosporus, and S. japonicus. b–d Interactions of GST tagged Mmi1 peptides (GST-Mmi1) with Erh1 visualized by Coomassie blue staining. The indicated GST-Mmi1 fusion proteins or GST alone were incubated with Erh1. The complexes were collected with glutathione-agarose resin and bound proteins were eluted and then subjected to SDS-PAGE. GST or GST-Mmi1 fusion proteins without Erh1 are shown as a negative control. Source data are provided as a Source Data file. e The raw ITC titration data of Erh1 with SUMO tagged Mmi1^95–122 and its fitting curve are shown. KD dissociation constant, DP differential power, N binding stoichiometry, ΔH binding enthalpy. f ITC fitting curves of Erh1 using SUMO tagged Mmi1^95–122 (magenta), Mmi1^106–122 (blue) and Mmi1^95–111 (green) are shown. g Size-exclusion analysis of Erh1 (magenta) and Erh1-Mmi1^95–122 (blue). Marker sizes are 62.9 KDa (Albumin), 46.7 KDa (Ovalbumin), 20.3 KDa (Chymotrypsinogen), 14.6 KDa (Ribonuclease A). Also shown are theoretical monomer sizes (kDa) of Erh1 protein and Mmi1^95–122 peptide TEXT PRINTED IN THE PICTURE: (e) Mmi1^95–122 - Erh1: KD (μM) 0.83±0.19; N (sites) 0.90±0.01; ΔH (kJ per mol) −106±3.02 | (f) Mmi1^95–122: Erh1 KD (μM): 0.83±0.19 | (f) Mmi1^106–122: Erh1 KD (μM): 9.94±1.19 | (f) Mmi1^95–111: Erh1 KD (μM): no binding | (g) Erh1: 13.2 kDa | (g) Mmi1^95–122: 3.5 kDa
A region of Erh1 (residues 1–104) was amplified by PCR from the S. pombe genome and cloned into a modified pET28a (Novagen) vector without a thrombin protease cleavage site (p28a). GST-Mmi1^YTH was sub-cloned from a Mmi1^YTH-p28a construct to a modified PGex-4T1 vector with a TEV protease cleavage site (Tev4T1). […]

Erh1 R23A = target: T1, Erh1 R23A (S. pombe, UniProt G2TRN4 1-104, R23A); assay: ITC; SUMO-tagged Mmi1 peptides titrated into Erh1 in the sample cell; MicroCal iTC200, 293 K; 20 mM Tris-HCl pH 7.5, 150 mM NaCl; single-site binding model; conditions: both partners purified
T1 construct: Erh1, S. pombe, residues 1-104, point mutant made with the MutanBEST kit; source: E. coli BL21 (Gold), purified (Ni-chelating resin, size-exclusion chromatography)
T1 sequence (looked up): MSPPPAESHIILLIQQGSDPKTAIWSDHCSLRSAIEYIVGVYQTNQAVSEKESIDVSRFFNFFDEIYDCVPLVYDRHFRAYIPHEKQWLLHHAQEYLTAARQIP

Erh1 D27A = target: T2, Erh1 D27A (S. pombe, UniProt G2TRN4 1-104, D27A); assay: as above; conditions: both partners purified
T2 construct: Erh1, S. pombe, residues 1-104, point mutant made with the MutanBEST kit; source: E. coli BL21 (Gold), purified (Ni-chelating resin, size-exclusion chromatography)
T2 sequence (looked up): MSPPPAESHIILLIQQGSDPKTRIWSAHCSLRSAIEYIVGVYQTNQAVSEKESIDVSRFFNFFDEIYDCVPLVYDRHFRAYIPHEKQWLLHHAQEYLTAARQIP

Erh1 D68A = target: T3, Erh1 D68A (S. pombe, UniProt G2TRN4 1-104, D68A); assay: as above; conditions: both partners purified
T3 construct: Erh1, S. pombe, residues 1-104, point mutant made with the MutanBEST kit; source: E. coli BL21 (Gold), purified (Ni-chelating resin, size-exclusion chromatography)
T3 sequence (looked up): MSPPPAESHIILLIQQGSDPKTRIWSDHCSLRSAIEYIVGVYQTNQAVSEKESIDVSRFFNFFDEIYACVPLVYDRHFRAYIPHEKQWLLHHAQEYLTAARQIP

Erh1 H9A = target: T4, Erh1 H9A (S. pombe, UniProt G2TRN4 1-104, H9A); assay: as above; conditions: both partners purified
T4 construct: Erh1, S. pombe, residues 1-104, point mutant made with the MutanBEST kit; source: E. coli BL21 (Gold), purified (Ni-chelating resin, size-exclusion chromatography)
T4 sequence (looked up): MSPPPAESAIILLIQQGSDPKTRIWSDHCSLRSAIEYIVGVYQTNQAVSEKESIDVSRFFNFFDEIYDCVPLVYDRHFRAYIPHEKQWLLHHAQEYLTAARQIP

Erh1 E85A = target: T5, Erh1 E85A (S. pombe, UniProt G2TRN4 1-104, E85A); assay: as above; conditions: both partners purified
T5 construct: Erh1, S. pombe, residues 1-104, point mutant made with the MutanBEST kit; source: E. coli BL21 (Gold), purified (Ni-chelating resin, size-exclusion chromatography)
T5 sequence (looked up): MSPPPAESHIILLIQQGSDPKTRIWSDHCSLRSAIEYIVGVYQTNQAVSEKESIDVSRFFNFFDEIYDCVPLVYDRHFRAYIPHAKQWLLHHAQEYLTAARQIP

[3] = target: T6, GST-tagged Mmi1^1-122 amino-terminal fragment (S. pombe, UniProt O74958 1-122); assay: pull-down; GST-Mmi1 fusion proteins incubated with Erh1, collected with glutathione-agarose resin, eluted, SDS-PAGE with Coomassie blue staining; conditions: both partners purified
T6 construct: Vector Tev4T1 (modified pGEX-4T1 with a TEV site); source: E. coli BL21 (Gold), purified (glutathione sepharose, SEC)
T6 sequence (looked up): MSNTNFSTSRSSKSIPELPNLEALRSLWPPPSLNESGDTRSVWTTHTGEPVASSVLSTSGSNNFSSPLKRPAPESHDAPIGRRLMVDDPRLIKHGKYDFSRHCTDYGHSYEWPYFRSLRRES

[4] = target: the molecule itself; assay: SEC; analytical size-exclusion chromatography, calibrated Superdex75 10/300 GL column; Erh1 alone and Erh1 with Mmi1^95-122 after removal of the SUMO tag by ULP1
[5] = Analytical size-exclusion chromatography (oligomeric state); type: physicochemical
Description: Next, we assessed the stoichiometry of Erh1 and Erh1-Mmi1^95–122 complexes by analytical size-exclusion chromatography (SEC) using a calibrated Superdex75 10/300 GL column (GE Healthcare). Erh1 eluted as a single peak at 11.41 mL, corresponding to an apparent molecular weight (MW) of 26 kDa. With a predicted molecular weight (MW) of ~13.2 kDa, this elution profile likely represents Erh1 homodimers (Fig. 1g). This is consistent with previous reports showing that human ERH protein exists as a dimer in solution[37].
We next purified SUMO-tagged Mmi1^95–122 and incubated it with Erh1, followed by removal of the SUMO tag by ULP1 enzyme.

B1: SUMO tagged Mmi1^95-122 (domain or fragment, S. pombe, UniProt O74958 95-122, looked up)
chain: GKYDFSRHCTDYGHSYEWPYFRSLRRES
notes: SUMO protein fused at the N-terminus following the His6 tag (modified pET28a); source: E. coli BL21 (Gold), purified (Ni-chelating resin, SEC); not shown: SUMO, N-terminal, kept
Kd [1]: 830 ± 190 nM | stoichiometry N [1]: 0.9

B2: Mmi1^95-122 peptide (SUMO tag removed) (peptide, UniProt O74958 95-122, looked up)
chain: GKYDFSRHCTDYGHSYEWPYFRSLRRES
notes: also called EID; EIM peptide; source: E. coli BL21 (Gold), purified as SUMO fusion, incubated with Erh1, SUMO tag removed by ULP1; not shown: His6, N-terminal, cleaved; SUMO, N-terminal, cleaved
stoichiometry N [2]: 1 Mmi1 per Erh1 (printed as 2:2)

B3: GST-tagged YTH domain of Mmi1: carboxy-terminal YTH domain of Mmi1, purified GST fusion (protein)
chain: SRYFIMLCDNETAIAHAKKTSIWAVKKDSSKRISDAYKKASVYFIFVAQQTYNALGYAQVVSDLNSTELPFWSDSSHAGGVRIKWIKTCNLFSAEISEIVSHMDHGSEARDGMEMMYDEGSRLCTLI
modifications: left off: GST, end not stated, kept
notes: carboxy-terminal YTH domain of Mmi1, purified GST fusion
interaction with Erh1 (GST pull-down) (Erh1): no interaction

B4: SUMO-tagged Mmi1 95-122 (domain or fragment, S. pombe, UniProt O74958 95-122, looked up)
chain: GKYDFSRHCTDYGHSYEWPYFRSLRRES
notes: SUMO stands after the His6 tag at the N-terminus; also called Mmi1wt; source: E. coli BL21 (Gold), purified (Ni-chelating resin, size-exclusion chromatography); not shown: SUMO, N-terminal, kept
Kd (Erh1 R23A): 1480 ± 1070 nM | stoichiometry N (Erh1 R23A): 1.28 | Kd (Erh1 D27A): 2040 ± 366 nM | stoichiometry N (Erh1 D27A): 1.14 | Kd (Erh1 D68A): 3.96 ± 0.551 µM | stoichiometry N (Erh1 D68A): 1.34 | Kd (Erh1 H9A): 1530 ± 205 nM | stoichiometry N (Erh1 H9A): 1.32 | Kd (Erh1 E85A): 2150 ± 291 nM | stoichiometry N (Erh1 E85A): 1.08

B5
binding result [3]: binds | stoichiometry N [4]: 2

B6: Erh1: S. pombe ortholog of human ERH (protein)
chain: MSPPPAESHIILLIQQGSDPKTRIWSDHCSLRSAIEYIVGVYQTNQAVSEKESIDVSRFFNFFDEIYDCVPLVYDRHFRAYIPHEKQWLLHHAQEYLTAARQIP
modifications: left off: His6, end not stated, state not stated
notes: S. pombe ortholog of human ERH
calculated molecular weight of complex with Erh1 by SEC ([5]; Erh1 associated with Mmi1^95–122 after SUMO tag removal by ULP1, consistent with 2:2 stoichiometry): 33 kDa | apparent molecular weight by SEC (Erh1 alone) ([5]; Superdex75 10/300 GL, calibrated, predicted monomer ~13.2 kDa, likely homodimer): 26 kDa

Reference: paper PMC6335422 (Nature Communications, 2019)
